Laboratory results from patent US20030148956A1 (PROCTER AND GAMBLE, published 2003).
Ends that are not written are not given here.

T1: CRF2R
T1 sequence (Q13324 whole entry, species assumed, looked up): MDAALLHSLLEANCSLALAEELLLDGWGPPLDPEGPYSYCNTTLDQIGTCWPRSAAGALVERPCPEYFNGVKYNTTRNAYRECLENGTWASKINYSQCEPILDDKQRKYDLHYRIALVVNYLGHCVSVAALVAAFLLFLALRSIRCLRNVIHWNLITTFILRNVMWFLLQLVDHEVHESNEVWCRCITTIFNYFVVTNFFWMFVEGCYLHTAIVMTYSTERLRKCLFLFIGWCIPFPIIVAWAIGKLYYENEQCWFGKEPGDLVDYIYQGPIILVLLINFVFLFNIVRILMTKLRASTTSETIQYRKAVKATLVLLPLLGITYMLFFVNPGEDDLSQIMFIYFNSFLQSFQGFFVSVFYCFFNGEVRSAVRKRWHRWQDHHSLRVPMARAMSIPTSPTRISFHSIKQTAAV


How the values were obtained:
[1] = target: CRF1R; experiment: cell-based or functional assay
[2] = target: T1, CRF2R; experiment: cell-based or functional assay

CRF1R EC50 [1] [nM] | CRF1R Emax [1] [%] | CRF2R EC50 [2] [nM] | CRF2R Emax [2] [%] | Binder
> 100 | 16 | 71.6 | 100 | ZGPPISIDLPKYLLRKMIEIEKQEKEKQQAANNRLLLDTI (C-terminal amide) [SEQ ID NO 58]
> 100 | 10 | > 100 | 27 | ZGPPISIDLPTNLLRKMIEIEKQEKEKQQAANNRLLLDTI (C-terminal amide) [SEQ ID NO 59]
> 100 | 5 | 43.4 | 100 | ZGPPISIDLPIHLLRKMIEIEKQEKEKQQAANNRLLLDTI (C-terminal amide) [SEQ ID NO 77]
> 100 | 5 | > 100 | 52 | ZGPPISIDLPIGLLRKMIEIEKQEKEKQQAANNRLLLDTI (C-terminal amide) [SEQ ID NO 75]
34.5 | 88 | 5.85 | 81 | ZGPPISIDLPFHLLRKMIEIEKQEKEKQQAANNRLLLDTI (C-terminal amide) [SEQ ID NO 69]
> 100 | 8 | > 100 | 44 | ZGPPISIDLPTRLLRKMIEIEKQEKEKQQAANNRLLLDTI (C-terminal amide) [SEQ ID NO 60]
> 100 | 16 | 67.9 | 64 | ZGPPISIDLPRYLLRKMIEIEKQEKEKQQAANNRLLLDTI (C-terminal amide) [SEQ ID NO 65]
> 100 | 8 | 18.2 | 82 | ZGPPISIDLPTYLLRKMIEIEKQEKEKQQAANNRLLLDTI (C-terminal amide) [SEQ ID NO 70]
> 100 | 4 | > 100 | 55 | ZGPPISIDLPTQLLRKMIEIEKQEKEKQQAANNRLLLDTI (C-terminal amide) [SEQ ID NO 72]
> 100 | 6 | 94.8 | 56 | ZGPPISIDLPTELLRKMIEIEKQEKEKQQAANNRLLLDTI (C-terminal amide) [SEQ ID NO 71]
68.9 | 57 | 63.3 | 94 | ZGPPISIDLPNYLLRKMIEIEKQEKEKQQAANNRLLLDTI (C-terminal amide) [SEQ ID NO 64]
73.2 | 34 | 67.3 | 100 | ZGPPISIDLPGYLLRKMIEIEKQEKEKQQAANNRLLLDTI (C-terminal amide) [SEQ ID NO 63]
> 100 | 7 | 91.5 | 76 | ZGPPISIDLPIELLRKMIEIEKQEKEKQQAANNRLLLDTI (C-terminal amide) [SEQ ID NO 76]
> 100 | 12 | > 100 | 89 | ZGPPISIDLPTALLRKMIEIEKQEKEKQQAANNRLLLDTI (C-terminal amide) [SEQ ID NO 61]
96.2 | 85 | 10.9 | 90 | ZGPPISIDLPLELLRKMIEIEKQEKEKQQAANNRLLLDTI (C-terminal amide) [SEQ ID NO 82]
52.2 | 96 | 1.91 | 81 | ZGPPISIDLPLHLLRKMIEIEKQEKEKQQAANNRLLLDTI (C-terminal amide) [SEQ ID NO 83]
11 | 84 | 2.34 | 100 | ZGPPISIDLPFYLLRKMIEIEKQEKEKQQAANNRLLLDTI (C-terminal amide) [SEQ ID NO 85]
82.2 | 99 | 1.77 | 100 | ZGPPISIDLPFQLLRKMIEIEKQEKEKQQAANNRLLLDTI (C-terminal amide) [SEQ ID NO 84]
> 100 | 7 | 55 | 100 | ZGPPISIDLPTHLLRKMIEIEKQEKEKQQAANNRLLLDTI (C-terminal amide) [SEQ ID NO 74]
44.2 | 96 | 10 | 50 | ZGPPISIDLPFELLRKMIEIEKQEKEKQQAANNRLLLDTI (C-terminal amide) [SEQ ID NO 67]
> 100 | 33 | 38.5 | 74 | ZGPPISIDLPFGLLRKMIEIEKQEKEKQQAANNRLLLDTI (C-terminal amide) [SEQ ID NO 68]
> 100 | 55 | 6.53 | 88 | ZGPPISIDLPLQLLRKMIEIEKQEKEKQQAANNRLLLDTI (C-terminal amide) [SEQ ID NO 80]
> 100 | 11 | > 100 | 11 | ZGPPISIDLPTGLLRKMIEIEKQEKEKQQAANNRLLLDTI (C-terminal amide) [SEQ ID NO 73]
> 100 | 8 | 22.3 | 100 | ZGPPISIDLPIYLLRKMIEIEKQEKEKQQAANNRLLLDTI (C-terminal amide) [SEQ ID NO 79]
> 100 | 6 | 24.6 | 78 | ZGPPISIDLPIQLLRKMIEIEKQEKEKQQAANNRLLLDTI (C-terminal amide) [SEQ ID NO 78]
60.9 | 81 | 4.3 | 73 | ZGPPISIDLPLYLLRKMIEIEKQEKEKQQAANNRLLLDT (C-terminal amide) [SEQ ID NO 81]
783 | 64 | 31.5 | 10 | IVLSLDVPIGLLQELLEMARAEQLAQQAHSNRKLMEII-NH2 [SEQ ID NO 1]
100 | 4.6 | 100 | 8.1 | SQEPPISLDLTIGLLREVLEMTKADQLAQQAHSNRKLLDIA-NH2 [SEQ ID NO 86]
